Source: US12356911B2, “Group of UDP-glycosyltransferase for catalyzing carbohydrate chain elongation and application thereof” (GSYNBIOT (SHANGHAI) CO., LTD, priority 2017, dated 2025)

Tests used:
Assay type in all cases: biochemical
[1] = In vitro transglycosylation at C-20, Rd as glycosyl acceptor, UDP-glucose as donor; details: crude enzyme (E. coli lysate supernatant); TLC/HPLC, FIG. 2, 3, 11
Excerpt: (§1) Cell lysate of recombinant E. coli with empty vector pET28a was used as a control.

[2] = In vitro transglycosylation at C-3, Rh2 as glycosyl acceptor, UDP-glucose as donor; details: crude enzyme (E. coli lysate supernatant); TLC, FIG. 13, FIG. 15
Excerpt: as §1

[3] = In vitro transglycosylation at C-20, CK as glycosyl acceptor, UDP-glucose as donor; details: crude enzyme (E. coli lysate supernatant); TLC/HPLC, FIG. 2, 3, 12, 16
Excerpt: as §1
As shown in FIG. 16: Protopanaxadiol Ginsenoside CK is used as a glycosyl acceptor, and UDP-glucose is used as a glycosyl donor.

| Molecule | product formation from Rd and UDP-glucose (Rb1) [1] | product formation from Rh2 and UDP-glucose (Rg3) [2] | product formation from CK and UDP-glucose (Gypenoside LXXV) [3] |
| --- | --- | --- | --- |
| PNUGT29-14: Panax notoginseng glycosyltransferase, 447 amino acids, SEQ ID NO: 57 (protein, Panax notoginseng) MYIEKGRISIVMLPFLAHGHISPFFELAKHLSKRNCNIFLCSTPINLSSIKNRVSDKDSSASIKLVELHLPSSPDLPPQYHTTNGLPSHLMVPLKNAFETVGPTFSEILKTLDPDLLIYDFNPSWAPEIALSHNIPAVYFLTSAAATSSVALRALKNPGEKYPFPDFYDNSNITPEPPSADKMKLFHDFVACFKRSCDIILIKSFRELEGKYIDLLSTLSKKTLVPVGPLVQDPLGHDEDPKTGHLINWLDKRAESTVVFVCFGSEYFPSNEELEEVAIGLEISMVNFILAVRFLEGEKKGVLPEGFVQRVGDRGLVVEGWAPQARILGHSSTGGFVSHCGWSSIMESVKFGVPVIAMARHLDQPLNAKLAAEVGVGMEVVRDENGKYKREAIAEVIRKVVMEKNGEVIRRKARELSEKMKETGEQEIGRAVEELVQICKMKKDAQY | can catalyze the extension of a glucosyl at the C-20 glycosyl of Rd to generate Rb1 | can catalyze the extension of a glucosyl at the C-3 glycosyl of Rh2 to generate Rg3 | can catalyze the extension of a glucosyl at the C-20 glycosyl to generate Gypenoside LXXV |
| PNUGT29-15: Panax notoginseng glycosyltransferase, 447 amino acids, SEQ ID NO: 59 (protein, Panax notoginseng) MDIEKGRISIVMLPFLAHGHISPFFELAKHLSKRNCNIFLCSTPINLSSIKNRVSDKDSSASIKLVELHLPSSPDLPPQYHTTNGLPSHLMVPLKNAFETVGPTFSEILKTLDPDLLIYDFNPSWAPEIALSHNIPAVYFLTSAAATSSVALRALKNPGEKYPFPDFYDNSNITPEPPSADKMKLFHDFVACFKRSCDIILIKSFRELEGKYIDLLSTLSKKTLVPVGPLVQDHLGHDEDPKTGHLINWLDKRAESTVVFVCFGSEYFPSNEELEEVAIGLEISMVNFILAVRFLEGEKKGVLPEGFVQRVGDRGLVVEGWAPQARILGHSSTGGFVSHCGWSSIMESVKFGVPVIAMARHLDQPLNAKLAAEVGVGMEVVRDENGKYTREAIAEVIRKVVMEKNGEVIRRKARELSDKMKEKGEQEIGRAVEELVQICKMKKDAQY | can catalyze the extension of a glucosyl at the C-20 glycosyl of Rd to generate Rb1 | can catalyze the extension of a glucosyl at the C-3 glycosyl of Rh2 to generate Rg3 | can catalyze the extension of a glucosyl at the C-20 glycosyl to generate Gypenoside LXXV |
| PNUGT29-1: Panax notoginseng glycosyltransferase, 447 amino acids, SEQ ID NO: 39 (protein, Panax notoginseng) MDIEKGRISIVMLPFLAHGHISPFFELAKHLSKRNCNIFLCSTPINLSSIKSRVSDKDSSASIKLVELHLPSSPDLPPQYHTTNGLPSHLMVPLKNAFETVGPTFSEILKTLDPDLLIYDFNPSWAPEIALSHNIPAVYFLTSAAATSSVALRALKNPGEKYPFPDFYDNSNITPEPPSADKMKLFHDFVACFKRSCDIILIKSFRELEGKYIDLLSTLSKKTLVPVGPLVQDPLGHDEDPKTGHLINWLDKRAESTVVFVCFGSEYFPSNEELEEVAIGLEISMVNFILAVRFLEGEKKGVLPEGFVQRVGDRGLVVEGWAPQARILGHSSTGGFVSHCGWSSIMESVKFGVPVIAMARHLDQPLNAKLAAEVGVGMEVVRDENGKYTREAIAEVIRKVVMEKNGEVIRRKARELSDKMKEKGEQEIGRAVEELVQICKMKKDAQY | can catalyze the extension of a glucosyl at the C-20 glycosyl of Rd to generate Rb1 | can catalyze the extension of a glucosyl at the C-3 glycosyl of Rh2 to generate Rg3 | can catalyze the extension of a glucosyl at the C-20 glycosyl to generate Gypenoside LXXV |
| PNUGT29-2: Panax notoginseng glycosyltransferase, 442 amino acids, SEQ ID NO: 41 (protein, Panax notoginseng) MDNQKGRISIALLPFLAHGHISPFFELAKQLAKRNCNVFLCSTPINLSSIKNKDSSASVKLVELHLPSSPDLPPHYHTTNGLPSHLMVPLRNAFETVGPTFSEILKTLNPDLLIYDFNPSWAPEIASSHNIPAVYFLTTAAASSSIGLHAFKNPGEKYPFPDFYDNSNITPEPPSADNMKLLHDFIACFERSCDIILIKSFRELEGKYIDLLSTLSDKTLVPVGPLVQDPMGHNEDPKTEQIINWLDKRAESTVVFVCFGSEYFLSNEELEEVAIGLEISMVNFIWAVRLIEGEKKGVLPEGFVQRVGDRGLVVEGWAPQARILGHSSTGGFVSHCGWSSIAESMRFGVPVIAMARHLDQPLNAKLAAEVGVGMEVVRDDNGKYKREGIAEVIRKVVVEKSGEVIRRKARELSEKMKEKGEQEIDRAVEELVQICKKKKDAQ | can catalyze the extension of a glucosyl at the C-20 glycosyl of Rd to generate Rb1 | can catalyze the extension of a glucosyl at the C-3 glycosyl of Rh2 to generate Rg3 | can catalyze the extension of a glucosyl at the C-20 glycosyl to generate Gypenoside LXXV |
| GT29-45: Ginseng UDP-glycosyltransferase, 448 amino acids, SEQ ID NO.: 98 (protein, Panax ginseng) MDIEKGRISIVMLPFLAHGHISPFFELAKHLSKRNCNIFLCSTPINLSSIKNRVSDKDSSASIKLVELHLPSSPDLPPHYHTTNGLPSHLMVPLRNAFETAAPTFSEILKTLNPDLLIYDFNPSWAPEIASSHNIPAVYFLTSAAATSSMGLHAFKNSGEKYPFPDFYDNSNITPEPPSADKMKLFHDFVACFKRSCDIILIKSFRELEGKYIDFLSTLSKKTLVPVGPLVQDPMGHDEDPKTGHLINWLDKRAESTVVFVCFGSEYFPSNEELEELAIGLEISMVSFILAVRFPEGEKKGILPEGFVQRVGDRGLVVEGWAPQARILGHSSTGGFVSHCGWSSIMESVKFGVPVIAMARHLDQPLNAKLAAEVGVGMEVMRDENGKYKREAIAEVIRKVVMEKNGEVMRRKARELSEKMKVKGEQEIGRAVEELVQICKKKKQHAQY |  | can all catalyze the extension of a glucosyl at the C-3 glycosyl of Rh2 to generate Rg3 | can catalyze the C-20 glycosyl of CK to extend a glucosyl to produce Gypenoside LXXV |
| GT29-46: Ginseng UDP-glycosyltransferase, 442 amino acids, SEQ ID NO.: 100 (protein, primer) MDNQEGRISIALLPFLAHGHISPFFELAKQLAKRNCNVFLCSTPINLSSIKNKDSSASIKLVELHLPSSPDLPPHYHTTNGLPSHLMVPLINAFETAGPTFSEILKTLNPDLLIYDFNPSWAPEIASSHNIPAVYFLTTAAASSSIGLHAFKNPGEKYPFPDFYDNSNNTPEPPSADNMKLLHDFIACFERSCDIILIKSFIELEGKYIDLLSTLSDKTLVPVGPLVQDPMGHNEDPKTEQIINWLDKRAESTVVFVYFGSEYFLSNEELEEVAIGLEISMVNFIWAVRLIEGEKKGVLPEGFVQRVGDRGLVVEGWAPQARILGHSSTGGFVSHCGWSSIAESMKFGVPVIAMARHLDQPLNGKLAAEVGVGMEVVRDENGKYKREGIAEVIRKVVVEKSGEVMRRKARELSEKMKEKGEEEIDRAVEELVQICKKKKDAQ |  | can all catalyze the extension of a glucosyl at the C-3 glycosyl of Rh2 to generate Rg3 | can catalyze the C-20 glycosyl of CK to extend a glucosyl to produce Gypenoside LXXV |
